± gives the standard error. Variants at the floor of the assay were thinned out.
B1: glmS ribozyme (parent)
chain: AUAAAAGCGCCAGAACUACAGAAAUGUAGUUGACGAGGAGGAGGUUUAUCGAAUUUUCGGCGGAUGCCUCCAAA

Key:
Settings in all cases: with glucosamine-6-phosphate
glucosamine-6-phosphate [1] = variants of: B1; assay: self-cleavage kobs at 40 uM GlcN6P; higher = faster cleavage; RNA array
Procedure, shortened: (§1)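 Barcoded ribozyme variants on sequenced MiSeq chips were transcribed in situ by E. coli RNA polymerase and followed at 37 °C through a hybridised Cy3 probe. Glucosamine-6-phosphate at 40 μM to 10 mM in HEPES/KCl/Mg(OAc)2 buffer was flowed in, and tiles were imaged over ~14 h. Signals were normalised to baseline and to non-cleaving reference variants, and per-tile medians were fit to one- or two-exponential decays to give kobs. Weighted Michaelis–Menten fits across concentrations gave kcat and KM.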

glucosamine-6-phosphate [2] = variants of: B1; assay: self-cleavage kobs at 10000 uM GlcN6P; higher = faster cleavage; RNA array
Procedure, shortened: as §1

glucosamine-6-phosphate [3] = variants of: B1; assay: self-cleavage kobs at 160 uM GlcN6P; higher = faster cleavage; RNA array
Procedure, shortened: as §1

glucosamine-6-phosphate [4] = variants of: B1; assay: self-cleavage kobs at 640 uM GlcN6P; higher = faster cleavage; RNA array
Procedure, shortened: as §1

glucosamine-6-phosphate [5] = variants of: B1; assay: self-cleavage kobs at 2500 uM GlcN6P; higher = faster cleavage; RNA array
Procedure, shortened: as §1

| Variant | self-cleavage kobs at 40 uM GlcN6P (glucosamine-6-phosphate [1]) [s⁻¹] | self-cleavage kobs at 10000 uM GlcN6P (glucosamine-6-phosphate [2]) [s⁻¹] | self-cleavage kobs at 160 uM GlcN6P (glucosamine-6-phosphate [3]) [s⁻¹] | self-cleavage kobs at 640 uM GlcN6P (glucosamine-6-phosphate [4]) [s⁻¹] | self-cleavage kobs at 2500 uM GlcN6P (glucosamine-6-phosphate [5]) [s⁻¹] |
| --- | --- | --- | --- | --- | --- |
| G35C G44A | < 1e-05 | < 1e-05 |  |  |  |
| G9A A14C G41U U55C | < 1e-05 |  |  |  |  |
| C11G A14C | < 1e-05 |  | < 1e-05 |  |  |
| C8U A33C C71A | < 1e-05 |  |  |  |  |
| G29C A39C A48C G60A | < 1e-05 | < 1e-05 |  |  |  |
| G7C G51U | < 1e-05 | < 1e-05 | < 1e-05 | < 1e-05 | < 1e-05 |
| C10U G35C A52U | < 1e-05 |  |  |  |  |
| G7U U30G C50G C61A | 0.000244 ± 8.9e-05 | 0.000292 ± 7.4e-05 |  |  |  |
| G37U G40A | < 1e-05 | < 1e-05 | < 1e-05 | < 1e-05 | < 1e-05 |
| G7U G37A | < 1e-05 | < 1e-05 |  |  |  |
| G9A C10A C11U U56G C71U | < 1e-05 | < 1e-05 |  |  | < 1e-05 |
| G29C U54G G60A | < 1e-05 | < 1e-05 |  |  |  |
| A15C G51A | < 1e-05 | < 1e-05 | < 1e-05 |  |  |
| G38A G43U C67U | < 1e-05 | < 1e-05 |  |  |  |
| A15C G37A G41C U69G | < 1e-05 | < 1e-05 |  |  |  |
| U47A C50G C68A | 0.000209 ± 7.9e-05 | 0.000323 ± 6.5e-05 |  |  |  |
| C11A U69G | 5.85e-05 ± 9.2e-06 | 5.17e-05 ± 1.1e-05 | 0.000398 ± 0.00018 | 0.000166 ± 4.5e-05 |  |
| C8U G38C G43A G44C G63U | < 1e-05 | < 1e-05 |  |  |  |
| G35C G63A | < 1e-05 | < 1e-05 | < 1e-05 | < 1e-05 |  |
| A33U U49A C71U | < 1e-05 | < 1e-05 |  |  |  |
| G9A C58G U65C | < 1e-05 |  |  | < 1e-05 | < 1e-05 |
| C16U U31A | 0.000621 ± 7.9e-05 | 0.0168 ± 0.0026 | 0.000862 ± 0.00014 | 0.00468 ± 0.00061 | 0.00634 ± 0.0017 |
| G9U U45G C50G | < 1e-05 | < 1e-05 | < 1e-05 | < 1e-05 |  |
| A6G U31C C68A | < 1e-05 |  |  |  |  |
| U30A U55A C61A | < 1e-05 |  |  |  | < 1e-05 |

| Variant | self-cleavage kobs at 40 uM GlcN6P (glucosamine-6-phosphate [1]) [s⁻¹] | self-cleavage kobs at 10000 uM GlcN6P (glucosamine-6-phosphate [2]) [s⁻¹] | self-cleavage kobs at 160 uM GlcN6P (glucosamine-6-phosphate [3]) [s⁻¹] | self-cleavage kobs at 640 uM GlcN6P (glucosamine-6-phosphate [4]) [s⁻¹] | self-cleavage kobs at 2500 uM GlcN6P (glucosamine-6-phosphate [5]) [s⁻¹] |
| --- | --- | --- | --- | --- | --- |
| C8G G9A G29U U56A A64G C70A | < 1e-05 |  |  |  |  |
| G32C C70G C71G | 7.5e-05 ± 3.3e-05 |  |  | 0.000291 ± 9.2e-05 | 7.37e-05 ± 3.4e-05 |
| A36C U54C A64U C67G | < 1e-05 |  |  |  |  |
| U57G G59C | < 1e-05 | < 1e-05 |  | < 1e-05 |  |
| G7C A14U | < 1e-05 |  | < 1e-05 | < 1e-05 | < 1e-05 |
| A48G A64G | < 1e-05 | 9.59e-05 ± 2.5e-05 |  |  | 7.81e-05 ± 2.4e-05 |
| A12C A42U C58U | < 1e-05 |  |  |  |  |
| U31G A39G A64G | 0.00023 ± 8.9e-05 | 0.0288 ± 0.012 |  | 0.00544 ± 0.0014 |  |
| G35C C58A C71A | < 1e-05 | < 1e-05 |  |  |  |
| A15U A36G U69G | 3.94e-05 ± 1.7e-05 |  |  |  |  |
| A42U G60U | < 1e-05 |  | < 1e-05 | < 1e-05 |  |
| C58G A64G C68A | 4.76e-05 ± 1.8e-05 |  |  | 0.00061 ± 0.00029 | 5.81e-05 ± 2.1e-05 |
| G35A C68A | < 1e-05 |  | < 1e-05 | < 1e-05 | < 1e-05 |
| G32C U45C C58G G59U | < 1e-05 |  |  |  |  |
| G7C G38U C70G | < 1e-05 |  |  |  |  |
| G41A A48U C68A | < 1e-05 | < 1e-05 |  | < 1e-05 | < 1e-05 |
| A12U C34U G41U G66C | < 1e-05 | < 1e-05 |  |  | < 1e-05 |
| G40C C68A | < 1e-05 | < 1e-05 | < 1e-05 | < 1e-05 | < 1e-05 |
| G32C A36U | < 1e-05 |  | < 1e-05 | < 1e-05 | < 1e-05 |
| A42C G63A C67G | < 1e-05 |  |  |  |  |
| C34G G38A C58U | < 1e-05 |  |  |  |  |
| G38C G40C A64U | < 1e-05 | < 1e-05 |  |  |  |
| G35C C50U C70G | < 1e-05 |  |  |  |  |
| C10G G40C C70G | < 1e-05 | < 1e-05 | < 1e-05 | < 1e-05 | < 1e-05 |
| C61G A64G | < 1e-05 | < 1e-05 |  | < 1e-05 | < 1e-05 |
